From the supplement of paper PMC7877785
± gives the uncertainty stated by the source.

Test: self-splicing fitness, log relative to wild type (ln ratio); higher = more splicing; Tetrahymena group I intron in knt gene, E. coli kanamycin selection, DiMSum; sequences stand for … in CUCUCU…GGAGGGAAAAGUUAUCAGGCAUGCACCUGGUAGCUAGUCUUUAAACCAAUAGAUUGCAUCGGUUUAAAAGGCAAGACCGUCAAAUUGCGGGAAAGGGGUCAACAGCCGUUCAGUACCAAGUCUCAGGGGAAACUUUGAGAUGGCCUUGCAAAGGGUAUGGUAAUAAGCUGACGGACAUGGUCCUAACCACGCAGCCAAGUCCUAAGUCAACAGAUCUUCUGUUGAUAUGGAUGCAGUUCACAGACUAAAUGUCGGUCGGGGAAGAUGUAUUCUUCUCAUAAGAUAUAGUCGGACCUCUCCUUAAUGGGAGCUAGCGGAUGAAGUGAUGCAACACUGGAGCCGCUGGGAACUAAUUUGUAUGCGAAAGUAUAUUGAUUAGUUUUGGAGUACUCGUGGUCG
How it was run: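 Library with all eight P1ex-region intron nucleotides randomised, intron inside the knt kanamycin-resistance gene on pET-22b(+), in E. coli BL21(DE3). Cells grew overnight at 37°C or 30°C on LB agar with or without 25 μg/mL kanamycin (plus 100 μg/mL carbenicillin, 50 μM IPTG, 0.2% rhamnose), in six replicate transformations. Pooled colonies were amplicon-sequenced on Illumina HiSeq 2500. DiMSum fitness is the error-weighted combination of wild-type-normalised replicate fold changes, kanamycin versus none.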

| Sequence | self-splicing fitness (ln) (30 °C) | self-splicing fitness (ln) (37 °C) |
| --- | --- | --- |
| AUUGAGCAAUAUUACGUCUA | -2.12 ± 0.17 | -1.77 ± 0.21 |
| AUUGAGCAAUAUUACGUGAU | -1.58 ± 0.14 | -2.17 ± 0.22 |
| AUUGAGCAAUAUUACGUGGG |  | -1.57 ± 0.19 |
| AUUGAGCAAUAUUACGUUGC | -2.94 ± 0.33 | -1.64 ± 0.18 |
| AUUUAGCAAUAUUACGAAAC | -2.83 ± 0.22 | -2 ± 0.27 |
| AUUUAGCAAUAUUACGAAAG | -2.86 ± 0.25 | -0.748 ± 0.17 |
| AUUUAGCAAUAUUACGACAG | -2.19 ± 0.24 | 0.257 ± 0.26 |
| AUUUAGCAAUAUUACGACUU | -0.092 ± 0.059 | 0.239 ± 0.067 |
| AUUUAGCAAUAUUACGAGUA | -2.95 ± 0.27 | -0.93 ± 0.18 |
| AUUUAGCAAUAUUACGAUCA | -1.08 ± 0.19 | 0.104 ± 0.16 |
| AUUUAGCAAUAUUACGCACA | -0.136 ± 0.093 | -0.202 ± 0.095 |
| AUUUAGCAAUAUUACGCCGC | -1.8 ± 0.41 | -1.82 ± 0.48 |
| AUUUAGCAAUAUUACGCCUG | -1.23 ± 0.12 | -0.529 ± 0.12 |
| AUUUAGCAAUAUUACGGAAA | -2.75 ± 0.29 | -1.47 ± 0.21 |
| AUUUAGCAAUAUUACGGAGC | -3.49 ± 0.45 |  |
| AUUUAGCAAUAUUACGGGUA | -2.72 ± 0.3 | -1.17 ± 0.17 |
| AUUUAGCAAUAUUACGUCAA | -3.4 ± 0.29 | -2.14 ± 0.34 |
| AUUUAGCAAUAUUACGUCAU | -1.76 ± 0.1 | -0.485 ± 0.1 |
| AUUUAGCAAUAUUACGUGCC | -0.606 ± 0.15 | 0.118 ± 0.14 |

| Sequence | self-splicing fitness (ln) (30 °C) | self-splicing fitness (ln) (37 °C) |
| --- | --- | --- |
| AUUUAGCAAUAUUACGUGGG | -3.33 ± 0.3 | -2.44 ± 0.3 |
| AUUUAGCAAUAUUACGUGGU | -2.91 ± 0.18 | -2.45 ± 0.29 |
| CAAAAGCAAUAUUACGAAAA | -2.35 ± 0.18 | -2.11 ± 0.2 |
| CAAAAGCAAUAUUACGAACC | -1.63 ± 0.31 | -1.45 ± 0.28 |
| CAAAAGCAAUAUUACGACAA | -1.85 ± 0.13 | -1.64 ± 0.15 |
| CAAAAGCAAUAUUACGACCC | -1.54 ± 0.15 | -1.72 ± 0.32 |
| CAAAAGCAAUAUUACGAGGA | -3.08 ± 0.19 | -2.14 ± 0.15 |
| CAAAAGCAAUAUUACGAUAU | -4.43 ± 0.25 | -2.23 ± 0.18 |
| CAAAAGCAAUAUUACGAUGA | -0.319 ± 0.074 | -0.167 ± 0.075 |
| CAAAAGCAAUAUUACGAUUC | -2.41 ± 0.11 | -0.98 ± 0.089 |
| CAAAAGCAAUAUUACGCCGC |  | -1.32 ± 0.48 |
| CAAAAGCAAUAUUACGCCUG | -1.07 ± 0.13 | -0.273 ± 0.13 |
| CAAAAGCAAUAUUACGCGUG | -3.22 ± 0.11 | -2.11 ± 0.14 |
| CAAAAGCAAUAUUACGCUCA | -1.64 ± 0.11 | -0.465 ± 0.13 |
| CAAAAGCAAUAUUACGCUGA | -3.25 ± 0.2 | -1.81 ± 0.15 |
| CAAAAGCAAUAUUACGGAUU | -3.49 ± 0.1 | -2.87 ± 0.1 |
| CAAAAGCAAUAUUACGGCGC | -2.33 ± 0.13 | -1.5 ± 0.18 |
| CAAAAGCAAUAUUACGGCUG | -1.3 ± 0.088 | -0.592 ± 0.11 |
| CAAAAGCAAUAUUACGGGAU | -3.95 ± 0.19 | -3.04 ± 0.22 |
